Molecular target: T1, C3b (UniProt P01024 23-667; P01024 749-1663)
T1 construct: Amine-coupled to a CM5 Biacore chip in the SPR assays; in solution in the cofactor assay; also called complement C3b
Assay: SPR (Biacore), C3b amine-coupled to a CM5 chip, steady-state fit over two flow cells (1540 and 3030 RU of C3b)
Description: FIG. 3G—(i) and (ii)—Use of SPR to measure affinity of (i)rFH and (ii) plasma-purified FH for C3b coupled to aCM5 sensor chip (Biacore). Duplicate sensorgrams are shown for a concentration series (5.4 μM, 1.0 μM, 0.5 μM, 0.1 μM) flowed over 1540 response units of immobilised C3b. (iii) and (iv)—Plots of response units versus (iii)rFH or (iv) plasma-purified FH concentrations for two different flow cells with either 1540 RUs (lower curve in each plot) or 3030 RUs (upper curve in each plot) of C3b.

T1 sequence (P01024 23-667 limits assumed, chain 1 of 2): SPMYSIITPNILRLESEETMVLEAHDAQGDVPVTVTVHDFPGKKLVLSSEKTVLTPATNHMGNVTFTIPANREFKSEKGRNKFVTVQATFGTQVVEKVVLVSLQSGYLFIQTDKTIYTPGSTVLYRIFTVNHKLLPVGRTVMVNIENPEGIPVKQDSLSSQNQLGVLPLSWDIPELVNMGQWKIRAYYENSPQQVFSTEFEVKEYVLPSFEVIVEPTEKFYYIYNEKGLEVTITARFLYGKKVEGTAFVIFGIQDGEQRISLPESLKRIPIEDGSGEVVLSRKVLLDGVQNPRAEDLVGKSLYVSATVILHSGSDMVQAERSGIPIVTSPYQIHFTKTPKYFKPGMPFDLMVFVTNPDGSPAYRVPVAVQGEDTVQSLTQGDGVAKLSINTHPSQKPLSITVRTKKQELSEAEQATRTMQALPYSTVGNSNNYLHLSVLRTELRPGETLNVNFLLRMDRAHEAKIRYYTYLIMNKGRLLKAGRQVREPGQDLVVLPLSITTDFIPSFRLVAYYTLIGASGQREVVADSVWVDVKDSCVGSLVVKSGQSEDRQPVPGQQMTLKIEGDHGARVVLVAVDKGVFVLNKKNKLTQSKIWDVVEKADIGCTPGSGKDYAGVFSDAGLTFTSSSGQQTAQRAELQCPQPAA
T1 sequence (P01024 749-1663 limits assumed, chain 2 of 2): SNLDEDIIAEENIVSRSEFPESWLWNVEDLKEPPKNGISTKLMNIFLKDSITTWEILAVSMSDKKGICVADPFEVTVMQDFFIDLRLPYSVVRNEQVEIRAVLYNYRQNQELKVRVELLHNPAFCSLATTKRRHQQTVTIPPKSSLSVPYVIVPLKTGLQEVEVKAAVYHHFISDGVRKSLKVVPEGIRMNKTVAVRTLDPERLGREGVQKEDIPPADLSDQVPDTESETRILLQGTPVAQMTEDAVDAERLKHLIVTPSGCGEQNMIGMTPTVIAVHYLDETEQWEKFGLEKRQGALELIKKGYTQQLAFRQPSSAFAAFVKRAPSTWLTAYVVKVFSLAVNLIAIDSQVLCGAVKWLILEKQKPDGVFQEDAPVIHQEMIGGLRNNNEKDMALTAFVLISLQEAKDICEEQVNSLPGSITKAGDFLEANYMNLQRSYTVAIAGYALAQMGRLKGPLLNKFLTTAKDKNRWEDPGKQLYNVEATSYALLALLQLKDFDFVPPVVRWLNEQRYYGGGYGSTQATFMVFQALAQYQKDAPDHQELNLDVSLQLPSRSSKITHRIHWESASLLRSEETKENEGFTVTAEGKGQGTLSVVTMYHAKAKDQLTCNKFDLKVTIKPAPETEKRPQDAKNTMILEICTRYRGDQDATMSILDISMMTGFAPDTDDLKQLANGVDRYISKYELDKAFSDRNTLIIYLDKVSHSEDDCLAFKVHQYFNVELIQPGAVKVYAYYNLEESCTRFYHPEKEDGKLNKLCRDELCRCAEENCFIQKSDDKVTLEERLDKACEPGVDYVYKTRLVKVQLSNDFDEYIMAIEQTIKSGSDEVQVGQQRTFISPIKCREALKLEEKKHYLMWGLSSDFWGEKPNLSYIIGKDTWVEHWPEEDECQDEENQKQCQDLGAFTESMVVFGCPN

Binder | Kd
recombinant human complement factor H (rFH) expressed from codon-optimised DNA in Pichia pastoris (other, UniProt P08603 19-1231, looked up, N-glycans removed with Endo Hf after expression, mature; also called rhFH; recombinant FH) EDCNELPPRRNTEILTGSWSDQTYPEGTQAIYKCRPGYRSLGNIIMVCRKGEWVALNPLRKCQKRPCGHPGDTPFGTFTLTGGNVFEYGVKAVYTCNEGYQLLGEINYRECDTDGWTNDIPICEVVKCLPVTAPENGKIVSSAMEPDREYHFGQAVRFVCNSGYKIEGDEEMHCSDDGFWSKEKPKCVEISCKSPDVINGSPISQKIIYKENERFQYKCNMGYEYSERGDAVCTESGWRPLPSCEEKSCDNPYIPNGDYSPLRIKHRTGDEITYQCRNGFYPATRGNTAKCTSTGWIPAPRCTLKPCDYPDIKHGGLYHENMRRPYFPVAVGKYYSYYCDEHFETPSGSYWDHIHCTQDGWSPAVPCLRKCYFPYLENGYNQNYGRKFVQGKSIDVACHPGYALPKAQTTVTCMENGWSPTPRCIRVKTCSKSSIDIENGFISESQYTYALKEKAKYQCKLGYVTADGETSGSITCGKDGWSAQPTCIKSCDIPVFMNARTKNDFTWFKLNDTLDYECHDGYESNTGSTTGSIVCGYNGWSDLPICYERECELPKIDVHLVPDRKKDQYKVGEVLKFSCKPGFTIVGPNSVQCYHFGLSPDLPICKEQVQSCGPPPELLNGNVKEKTKEEYGHSEVVEYYCNPRFLMKGPNKIQCVDGEWTTLPVCIVEESTCGDIPELEHGWAQLSSPPYYYGDSVEFNCSESFTMIGHRSITCIHGVWTQLPQCVAIDKLKKCKSSNLIILEEHLKNKKEFDHNSNIRYRCRGKEGWIHTVCINGRWDPEVNCSMAQIQLCPPPPQIPNSHNMTTTLNYRDGEKVSVLCQENYLIQEGEEITCKDGRWQSIPLCVEKIPCSQPPQIEHGTINSSRSSQESYAHGTKLSYTCEGGFRISEENETTCYMGKWSSPPQCEGLPCKSPPEISHGVVAHMSDSYQYGEEVTYKCFEGFGIDGPAIAKCLGEKWSHPPSCIKTDCLSLPSFENAIPMGEKKDVYKAGEQVTYTCATYYKMDGASNVTCINSRWTGRPTCRDTSCVNPPTVQNAYIVSRQMSKYPSGERVRYQCRSPYEMFGDEEVMCLNGNWTEPPQCKDSTGKCGPPPPIDNGDITSFPLSVYAPASSVEYQCQNLYQLEGNKRITCRNGQWSEPPKCLHPCVISREIMENYNIALRWTAKQKLYSRTGESVEFVCKRGYRLSSRSHTLRTTCWDGKLEYPTCAKR | 1.4 µM
plasma-purified human factor H (other, UniProt P08603 19-1231, looked up, mature; Bought, plasma-derived; also called FH; plasma FH) EDCNELPPRRNTEILTGSWSDQTYPEGTQAIYKCRPGYRSLGNVIMVCRKGEWVALNPLRKCQKRPCGHPGDTPFGTFTLTGGNVFEYGVKAVYTCNEGYQLLGEINYRECDTDGWTNDIPICEVVKCLPVTAPENGKIVSSAMEPDREYHFGQAVRFVCNSGYKIEGDEEMHCSDDGFWSKEKPKCVEISCKSPDVINGSPISQKIIYKENERFQYKCNMGYEYSERGDAVCTESGWRPLPSCEEKSCDNPYIPNGDYSPLRIKHRTGDEITYQCRNGFYPATRGNTAKCTSTGWIPAPRCTLKPCDYPDIKHGGLYHENMRRPYFPVAVGKYYSYYCDEHFETPSGSYWDHIHCTQDGWSPAVPCLRKCYFPYLENGYNQNYGRKFVQGKSIDVACHPGYALPKAQTTVTCMENGWSPTPRCIRVKTCSKSSIDIENGFISESQYTYALKEKAKYQCKLGYVTADGETSGSITCGKDGWSAQPTCIKSCDIPVFMNARTKNDFTWFKLNDTLDYECHDGYESNTGSTTGSIVCGYNGWSDLPICYERECELPKIDVHLVPDRKKDQYKVGEVLKFSCKPGFTIVGPNSVQCYHFGLSPDLPICKEQVQSCGPPPELLNGNVKEKTKEEYGHSEVVEYYCNPRFLMKGPNKIQCVDGEWTTLPVCIVEESTCGDIPELEHGWAQLSSPPYYYGDSVEFNCSESFTMIGHRSITCIHGVWTQLPQCVAIDKLKKCKSSNLIILEEHLKNKKEFDHNSNIRYRCRGKEGWIHTVCINGRWDPEVNCSMAQIQLCPPPPQIPNSHNMTTTLNYRDGEKVSVLCQENYLIQEGEEITCKDGRWQSIPLCVEKIPCSQPPQIEHGTINSSRSSQESYAHGTKLSYTCEGGFRISEENETTCYMGKWSSPPQCEGLPCKSPPEISHGVVAHMSDSYQYGEEVTYKCFEGFGIDGPAIAKCLGEKWSHPPSCIKTDCLSLPSFENAIPMGEKKDVYKAGEQVTYTCATYYKMDGASNVTCINSRWTGRPTCRDTSCVNPPTVQNAYIVSRQMSKYPSGERVRYQCRSPYEMFGDEEVMCLNGNWTEPPQCKDSTGKCGPPPPIDNGDITSFPLSVYAPASSVEYQCQNLYQLEGNKRITCRNGQWSEPPKCLHPCVISREIMENYNIALRWTAKQKLYSRTGESVEFVCKRGYRLSSRSHTLRTTCWDGKLEYPTCAKR | 2.9 µM

Source: patent US20150139975A1 (published 2015)
